{
  "source": "patent US20190135872A1",
  "key": {"[1]": {"target": "+N332 N276Q/N360Q/N463Q (HIV-1 16055 (Indian subtype C))", "assay": "BLI, trimer on anti-His sensor, Fab analyte"}, "[2]": {"target": "+N332 N276Q/N360Q/N463Q/N301Q (HIV-1 16055 (Indian subtype C))", "assay": "BLI, trimer on anti-His sensor, Fab analyte"}, "[3]": {"target": "+N332 N301Q (HIV-1 16055 (Indian subtype C))", "assay": "BLI, trimer on anti-His sensor, Fab analyte"}, "[4]": {"target": "N276Q/N463Q trimer (PT backbone) (HIV-1 16055 (Indian subtype C))", "assay": "BLI, trimer on anti-His sensor, Fab analyte"}, "[5]": {"target": "+N332 N276Q/N360Q/N463Q/N301Q (HIV-1 16055 (Indian subtype C))", "assay": "negative-stain EM, 2D classes of trimer-Fab complexes"}, "[6]": {"target": "+N332 PT (HIV-1 16055 (Indian subtype C))", "assay": "negative-stain EM, 2D classes of trimer-Fab complexes"}, "[7]": {"target": "+N332 N276Q/N360Q/N463Q (HIV-1 16055 (Indian subtype C))", "assay": "BLI (Octet): trimer on anti-His sensor, Fab in solution, 1:1 global fit"}, "[8]": {"target": "+N332 N276Q/N360Q/N463Q/N301Q (HIV-1 16055 (Indian subtype C))", "assay": "BLI (Octet): trimer on anti-His sensor, Fab in solution, 1:1 global fit"}, "[9]": {"target": "+N332 N301Q (HIV-1 16055 (Indian subtype C))", "assay": "BLI (Octet): trimer on anti-His sensor, Fab in solution, 1:1 global fit"}, "[10]": {"target": "+N332 PT (HIV-1 16055 (Indian subtype C))", "assay": "BLI (Octet): trimer on anti-His sensor, Fab in solution, 1:1 global fit"}, "[11]": {"target": "16055 NFL TD CC (T569G) (HIV-1 16055 (Indian subtype C))", "assay": "BLI (Octet): trimer on anti-His sensor, Fab in solution, 1:1 global fit"}, "[12]": {"target": "N276Q/N463Q trimer (PT backbone) (HIV-1 16055 (Indian subtype C))", "assay": "BLI (Octet): trimer on anti-His sensor, Fab in solution, 1:1 global fit"}},
  "data": [
    {"substance": "VRC03 Fab", "values": [
      {"measurement": "fold difference in affinity vs +N332 PT", "setting": "[1]", "value": 10, "unit": "fold"},
      {"measurement": "fold difference in affinity vs +N332 PT", "setting": "[2]", "value": 8, "unit": "fold"},
      {"measurement": "fold lower binding vs +N332 PT", "setting": "[3]", "value": 2, "unit": "fold"},
      {"measurement": "fold more efficient recognition vs PT", "setting": "[4]", "value": 30, "unit": "fold"},
      {"measurement": "share of trimers unliganded", "setting": "[5]", "value": 22, "unit": "%"},
      {"measurement": "share of trimers with 1 Fab", "setting": "[5]", "value": 23, "unit": "%"},
      {"measurement": "share of trimers with 2 Fabs", "setting": "[5]", "value": 30, "unit": "%"},
      {"measurement": "share of trimers with 3 Fabs", "setting": "[5]", "value": 25, "unit": "%"},
      {"measurement": "share of trimers unliganded", "setting": "[6]", "value": 19, "unit": "%"},
      {"measurement": "share of trimers with 1 Fab", "setting": "[6]", "value": 20, "unit": "%"},
      {"measurement": "share of trimers with 2 Fabs", "setting": "[6]", "value": 34, "unit": "%"},
      {"measurement": "share of trimers with 3 Fabs", "setting": "[6]", "value": 27, "unit": "%"},
      {"measurement": "Kd", "setting": "[7]", "value": 12.9, "unit": "nM"},
      {"measurement": "koff", "setting": "[7]", "value": 0.000739, "unit": "s⁻¹"},
      {"measurement": "kon", "setting": "[7]", "value": 57100, "unit": "M⁻¹ s⁻¹"},
      {"measurement": "Kd", "setting": "[8]", "value": 16.4, "unit": "nM"},
      {"measurement": "koff", "setting": "[8]", "value": 0.00124, "unit": "s⁻¹"},
      {"measurement": "kon", "setting": "[8]", "value": 75400, "unit": "M⁻¹ s⁻¹"},
      {"measurement": "Kd", "setting": "[9]", "value": 270, "unit": "nM"},
      {"measurement": "koff", "setting": "[9]", "value": 0.0037, "unit": "s⁻¹"},
      {"measurement": "kon", "setting": "[9]", "value": 13700, "unit": "M⁻¹ s⁻¹"},
      {"measurement": "Kd", "setting": "[10]", "value": 131, "unit": "nM"},
      {"measurement": "koff", "setting": "[10]", "value": 0.00204, "unit": "s⁻¹"},
      {"measurement": "kon", "setting": "[10]", "value": 15600, "unit": "M⁻¹ s⁻¹"},
      {"measurement": "Kd", "setting": "[11]", "value": 241, "unit": "nM"},
      {"measurement": "koff", "setting": "[11]", "value": 0.0026, "unit": "s⁻¹"},
      {"measurement": "kon", "setting": "[11]", "value": 10800, "unit": "M⁻¹ s⁻¹"},
      {"measurement": "Kd", "setting": "[12]", "value": 8.6, "unit": "nM"},
      {"measurement": "koff", "setting": "[12]", "value": 0.000505, "unit": "s⁻¹"},
      {"measurement": "kon", "setting": "[12]", "value": 58700, "unit": "M⁻¹ s⁻¹"}
    ]}
  ]
}
